Results on 2 molecules are retold here after US20250304670A1 (AstraZeneca / MedImmune, published 2025).

Test [1] concerns the target T1, Biotinylated Scrambled Amyloid Beta 1-42 peptide (N-terminal biotin).
T1 construct: Anaspec custom synthesis; control peptide; also called scrambled human Amyloid beta 1-42 peptide; biotinylated scrambled human Amyloid beta 1-42
T1 peptide: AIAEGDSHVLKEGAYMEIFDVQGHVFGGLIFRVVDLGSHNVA
In words: direct binding HTRF, purified sFab and scrambled peptide.

For test [2], the target named is T2, Biotinylated Human Amyloid Beta 1-40 peptide (human, N-terminal biotin).
T2 construct: synthetic
Nature of the test: HTRF direct binding: dilution series of purified His-tagged Fab with biotinylated human Amyloid beta 1-40 peptide, streptavidin cryptate and anti-6his-XL665 (sections 1.3, 1.4). The method, then: (§1) Selection outputs were screened as unpurified bacterial periplasmic extracts containing sFab, prepared in 50 mM MOPS buffer pH 7.4, 0.5 mM EDTA and 0.5 M sucrose. Ten microlitres of unpurified sFab samples were added to a Costar® 384 well assay plate (Corning, USA; cat: 3676). This was followed by the addition of 5 μl of 20 nM synthetic human Amyloid beta 1-42 and 5 μl of a combined solution of 6 nM streptavidin cryptate and 20 nM anti-his-XL665. Non-specific binding wells (negative controls) were defined for each plate by using a negative control unpurified sFab in place of the test sFab sample. Cross-reactive sFab clones were identified using a concurrent assay with human Amyloid beta 1-40 peptide. […] Assay plates were incubated for 4 hours at room temperature prior to reading time resolved fluorescence on an EnVision plate reader (PerkinElmer, USA) using an excitation wavelength of 320 nm and measuring the emission at 620 nm and 665 nm (100 flashes).
(§2) The sFab with unique protein sequences were expressed in E. coli and purified by affinity chromatography (essentially as described (Bannister et al., 2006)). The Amyloid beta binding profile of each purified sFab was determined by testing a dilution series of the purified sFab in the HTRF™ assay described in section 1.3, substituting the unpurified sFab periplasmic preparation with the purified sFab.
In general terms: In TR-FRET formats the signal depends on donor and acceptor labels being close together.

The target of test [3] is T3, Biotinylated Human Amyloid Beta 1-42 peptide (human, N-terminal biotin).
T3 construct: synthetic (rPeptide A1117 or Bachem H-5642); also called N-terminal biotin Abeta 1-42; synthetic biotinylated human Amyloid beta 1-42 peptide
In words: HTRF direct binding: dilution series of purified His-tagged Fab with biotinylated human Amyloid beta 1-42 peptide, streptavidin cryptate and anti-6his-XL665 (sections 1.3, 1.4). The method, then: as §1, §2

Test [4] concerns the target T4, Biotinylated Murine Amyloid Beta 1-42 peptide (murine, not fully specified; N-terminal biotin).
T4 construct: Anaspec 61718-01
T4 peptide: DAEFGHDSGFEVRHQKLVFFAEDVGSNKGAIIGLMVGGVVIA
In words: direct binding HTRF, purified sFab and biotinylated peptide.

Test [5] addresses T5, human Amyloid beta pyro 3-42 peptide (human, pyroglutamate at residue 3 (the N-terminal residue)).
T5 construct: the pyro form (Anaspec 29907) has no entry of its own; also called Abeta pyro-3-42; Abeta Pyro-3-42
Nature of the test: TR-FRET peptide competition against biotinylated human Amyloid beta 1-42. How it is done: (§3) This involved the use of Europium cryptate labelled anti-human Fc IgG (CisBio International, France; cat: 61 HFCKLB) and XL665 labelled streptavidin (CisBio International, France; cat: 611SAXLB) TR-FRET detection reagents.
(§4) Experiments were set up in Costar 384 well shallow bottom microtitre plates. […] 5 μl of assay buffer only was added to the negative binding assay control wells. […] 5 μl per well of each test peptide serial dilution was then transferred onto the 384 well assay plate. 5 μl of assay buffer only was added to the total and negative binding assay control wells. […] Finally, a combined solution was prepared containing Europium cryptate labelled anti-human Fc (2.4 nM) and XL665 labelled streptavidin (60 nM). 5 μl per well of this solution was added to all wells of the 384 well assay plate such that the final concentrations of Europium cryptate labelled anti-human Fc and XL665 labelled streptavidin were 0.6 nM and 15 nM, respectively.

The target of test [6] is T6, Human Amyloid Beta 1-16 truncated peptide (human).
T6 construct: synthetic, unlabelled; also called Abeta 1-16
T6 peptide: DAEFRHDSGYEVHHQK
The test is described as above. How it is done: as §3, §4

Test [7] deals with T7, Human Amyloid Beta 1-40 peptide (human).
T7 construct: synthetic, unlabelled; also called unlabelled human Amyloid beta 1-40
In words: TR-FRET peptide competition: dilution series of unlabelled peptide against 1.5 nM biotinylated human Amyloid beta 1-42 peptide for 0.28 nM Abet0144-GL IgG1-TM (section 2.10). The method, then: as §3, §4

The target of test [8] is T1, Biotinylated Scrambled Amyloid Beta …. In words: SPR (BIAcore T-100), antibody amine-coupled to a CM3 chip, peptide analyte at 400 nM (section 2.9). How it is done:
(§5) The affinity of binding between each test IgG and each peptide was estimated using assays in which the antibody was covalently coupled by amine-linkage to a proprietary CM3 chip surface to a final surface density of approximately 2,000 RU. The chip surface was regenerated between cycles by a single 40 second injection of 10 mM Glycine pH 2.0 to remove ligand bound to the antibody.
(§6) Blank reference flow-cell data were subtracted from each IgG dataset and a zero-concentration buffer blank was double-reference subtracted from the main dataset to reduce the impact of any buffer artefacts or non-specific binding effects.
In general terms: Surface plasmon resonance follows binding to a sensor surface in real time, without labels.

For test [9], the target named is T2, Biotinylated Human Amyloid Beta 1-40 …. Described as above. The method, then: as §5, §6
Test [10] concerns the target T8, Amyloid beta plaques on human Alzheimer's Disease brain sections (human, UniProt P05067 672-713).
T8 construct: mixture of Amyloid beta species in tissue; also called native Amyloid beta; human AD brain sections
In words: in vitro immunohistochemistry, core plaques.

The target in test [11] is T9, Amyloid beta plaques on Tg2576 mouse brain sections (human (transgene in Tg2576 mice), UniProt P05067 672-713).
T9 construct: mixture of Amyloid beta species in tissue; also called Tg2576 brain sections; Amyloid beta plaques in aged Tg2576 mice
Nature of the test: in vitro immunohistochemistry, core plaques.

Test [12] concerns the target T10, Human Amyloid Beta 1-42 peptide (human).
T10 construct: synthetic, unlabelled; also used here for the endogenous peptide of human plasma in the depletion assay; also called unlabelled human Amyloid beta 1-42; synthetic human Amyloid beta 1-42 peptide
Nature of the test: SPR (BIAcore T-100), peptide over amine-coupled IgG, 1:1 Langmuir fit. The method, then:
The affinity of binding between each test IgG and human Amyloid beta 1-42 was estimated using assays in which the antibody was covalently coupled by amine linkage to a proprietary CM3 chip surface to a final surface density of approximately 2,000 RU. The chip surface was regenerated between cycles by a single 40 second injection of 10 mM Glycine pH 2.0 to remove ligand bound to the antibody.
Blank reference flow-cell data were subtracted from each IgG dataset and a zero-concentration buffer blank was double-reference subtracted from the main dataset to reduce the impact of any buffer artefacts or non-specific binding effects. An appropriate binding model was then fitted simultaneously to the data from each analyte titration using the BIAevaluation software.

T2 sequence (peptide, as listed by the source): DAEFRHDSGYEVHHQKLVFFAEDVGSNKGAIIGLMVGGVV
T7 sequence (peptide, as listed by the source): as above

B1: Abet0007 sFab (Fab, V domains shown)
VH: EVQLLESGGGLVQPGGSLRLSCAASGFTFSVYTMWWVRQAPGKGLEWVSVIGSSGGTTVYADSVKGRFTISRDNSKNTLYLQMNSLRAEDTAVYYCAREGQQLVRPYYYYGMDVWGQGTLVTVSS
VL: QSVLTQPPSVSVSPGQTASITCSGHNLEDKFASWYQQKSGQSPVLVIYRDDKRPSGIPERFSASNSGHTATLTISGTQATDEADYYCQAQDSTTRVFGGGTKLTVL
notes: soluble single chain Fab fragment (sFab) from the Dyax Fab310-Lambda library, histidine tagged, purified from E. coli; also called Abet0007 Fab; purified Abet0007 Fab
As usually defined, the EC50 (read off the curve) is the concentration that produces a half-maximal response. High values mean weaker potency, low ones greater potency. As for B1, the binding result in test [1] was “no binding”; in [2], “no binding (tested: 1e-7 M (Log M -7))”; in test [4], “binds”. For the same molecule, the 50% effective concentration (EC50 (read off the curve)) in test [3] was ~6 nM.

B2: Abet0144-GL IgG1-TM (antibody, V domains shown)
VH: EVQLLESGGGLVQPGGSLRLSCAASGFTFSVYTMWWVRQAPGKGLEWVSVIGSSGGTTVYADSVKGRFTISRDNSKNTLYLQMNSLRAEDTAVYYCAREWMDHSRPYYYYGMDVWGQGTLVTVSS
VL: SYELTQPPSVSVSPGQTASITCSGHNLEDKFASWYQQKPGQSPVLVIYRDDKRPSGIPERFSASNSGHTATLTISGTQAMDEADYYCQAQDSTTRVFGGGTKLTVL
notes: human IgG1 with the triple mutation L234F/L235E/P331S (TM), human lambda light chain; also called Abet0144-GL (germlined) IgG1-TM
Usually Kd stands for a measure of binding affinity in units of concentration. A low value points to a tighter complex. By koff is commonly meant the first-order rate constant of dissociation. Read a low koff as a long-lived complex. As usually defined, the kon is a measure of how fast the partners come together. Low readings indicate slower complex formation, high ones faster complex formation. In the case of B2, the binding result is “binds” in [5]; “no binding (tested: 10 uM)” in test [6]; “no binding (tested: 1e-5 M (logM -5))” in test [7]; “no binding (tested: 400 nM)” in test [8]; “no binding (tested: 400 nM)” in [9]. The “plaque staining score (0-4)” value in test [10] amounted to 1.5; in test [11] it was 1. Further, binding in test [12] was characterised by a dissociation constant (Kd) of 9.5 nM. The koff in [12] came to 0.00197 s⁻¹. Moreover, in test [12], the kon is 208000 M⁻¹ s⁻¹.
